Data on one substance can be found in PMC4046987.

In this data set the test system is HfqBc (Hfq6) (Burkholderia cenocepacia J2315). Briefly: EMSA. As to conditions: no MtvR; complexes seen only at 500 nM HfqBc or higher; excess yeast tRNA; 20 mM Tris-Cl pH 8.0, 1 mM DTT, 1 mM MgCl2, 10 mM KCl, 10 mM KH2PO4, excess yeast tRNA, 30 min at 25 C; native 8% PAGE with 10% glycerol. (A gel shift assay detects complexes by their altered migration in electrophoresis.)

For orientation: Kd means the equilibrium constant for the complex coming apart. Higher therefore signals a looser complex. In turn, hfqEc full mRNA (5'-UTR + CDS) showed a Kd of 11.6 µM.
